Laboratory results published in IntAct's records for PubMed 20543827.

B1: Retinoic acid receptor alpha (Homo sapiens), P10276 (parent)
chain: MASNSSSCPTPGGGHLNGYPVPPYAFFFPPMLGGLSPPGALTTLQHQLPVSGYSTPSPATIETQSSSSEEIVPSPPSPPPLPRIYKPCFVCQDKSSGYHYGVSACEGCKGFFRRSIQKNMVYTCHRDKNCIINKVTRNRCQYCRLQKCFEVGMSKESVRNDRNKKKKEVPKPECSESYTLTPEVGELIEKVRKAHQETFPALCQLGKYTTNNSSEQRVSLDIDLWDKFSELSTKCIIKTVEFAKQLPGFTTLTIADQITLLKAACLDILILRICTRYTPEQDTMTFSDGLTLNRTQMHNAGFGPLTDLVFAFANQLLPLEMDDAETGLLSAICLICGDRQDLEQPDRVDMLQEPLLEALKVYVRKRRPSRPHMFPKMLMKITDLRSISAKGAERVITLKMEIPGSMPPLIQEMLENSEGLDTLSGQPGGGGRDGGGLAPPPGSCSPSLSPSSNRSSPATHSP

Variants of: B1
Conditions: with ncor1_human NCOR1, O75376

Question: For MASNSSSCPTPGGGHLNGYPVPPYAFFFPPMLGGLSPPGALTTLQHQLPVSGYSTPSPATIETQSSSSEEIVPSPPSPPPLPRIYKPCFVCQDKSSGYHYGVSACEGCKGFFRRSIQKNMVYTCHRDKNCIINKVTRNRCQYCRLQKCFEVGMSKESVRNDRNKKKKEVPKPECSESYTLTPEVGELIEKVRKAHQETFPALCQLGKYTTNNSSEQRVSLDIDLWDKFSELSTKCIIKTVEFAKQLPGFTTLTIADQITLLKAACLDILILRICTRYTPEQDTMTFSDGLTLNRTQMHNAGFGPLTDLVFAFANQLLPLEMDDAETGLLSAICLICGDRQDLEQPDRVDMLQEPLLEALKVYVRKRRPSRPHMFPKMLMKITDLRSISAKGAERVETLKMEIPGSMPPLIQEMLENSEGLDTLSGQPGGGGRDGGGLAPPPGSCSPSLSPSSNRSSPATHSP [I396E], which “effect of a mutation on the interaction” value is on record?
Answer: decreasing interaction

Variants of: B1
Conditions: with ncor1_mouse Ncor1, Q60974
ncor1_mouse Ncor1, Q60974, sequence (Q60974 whole entry): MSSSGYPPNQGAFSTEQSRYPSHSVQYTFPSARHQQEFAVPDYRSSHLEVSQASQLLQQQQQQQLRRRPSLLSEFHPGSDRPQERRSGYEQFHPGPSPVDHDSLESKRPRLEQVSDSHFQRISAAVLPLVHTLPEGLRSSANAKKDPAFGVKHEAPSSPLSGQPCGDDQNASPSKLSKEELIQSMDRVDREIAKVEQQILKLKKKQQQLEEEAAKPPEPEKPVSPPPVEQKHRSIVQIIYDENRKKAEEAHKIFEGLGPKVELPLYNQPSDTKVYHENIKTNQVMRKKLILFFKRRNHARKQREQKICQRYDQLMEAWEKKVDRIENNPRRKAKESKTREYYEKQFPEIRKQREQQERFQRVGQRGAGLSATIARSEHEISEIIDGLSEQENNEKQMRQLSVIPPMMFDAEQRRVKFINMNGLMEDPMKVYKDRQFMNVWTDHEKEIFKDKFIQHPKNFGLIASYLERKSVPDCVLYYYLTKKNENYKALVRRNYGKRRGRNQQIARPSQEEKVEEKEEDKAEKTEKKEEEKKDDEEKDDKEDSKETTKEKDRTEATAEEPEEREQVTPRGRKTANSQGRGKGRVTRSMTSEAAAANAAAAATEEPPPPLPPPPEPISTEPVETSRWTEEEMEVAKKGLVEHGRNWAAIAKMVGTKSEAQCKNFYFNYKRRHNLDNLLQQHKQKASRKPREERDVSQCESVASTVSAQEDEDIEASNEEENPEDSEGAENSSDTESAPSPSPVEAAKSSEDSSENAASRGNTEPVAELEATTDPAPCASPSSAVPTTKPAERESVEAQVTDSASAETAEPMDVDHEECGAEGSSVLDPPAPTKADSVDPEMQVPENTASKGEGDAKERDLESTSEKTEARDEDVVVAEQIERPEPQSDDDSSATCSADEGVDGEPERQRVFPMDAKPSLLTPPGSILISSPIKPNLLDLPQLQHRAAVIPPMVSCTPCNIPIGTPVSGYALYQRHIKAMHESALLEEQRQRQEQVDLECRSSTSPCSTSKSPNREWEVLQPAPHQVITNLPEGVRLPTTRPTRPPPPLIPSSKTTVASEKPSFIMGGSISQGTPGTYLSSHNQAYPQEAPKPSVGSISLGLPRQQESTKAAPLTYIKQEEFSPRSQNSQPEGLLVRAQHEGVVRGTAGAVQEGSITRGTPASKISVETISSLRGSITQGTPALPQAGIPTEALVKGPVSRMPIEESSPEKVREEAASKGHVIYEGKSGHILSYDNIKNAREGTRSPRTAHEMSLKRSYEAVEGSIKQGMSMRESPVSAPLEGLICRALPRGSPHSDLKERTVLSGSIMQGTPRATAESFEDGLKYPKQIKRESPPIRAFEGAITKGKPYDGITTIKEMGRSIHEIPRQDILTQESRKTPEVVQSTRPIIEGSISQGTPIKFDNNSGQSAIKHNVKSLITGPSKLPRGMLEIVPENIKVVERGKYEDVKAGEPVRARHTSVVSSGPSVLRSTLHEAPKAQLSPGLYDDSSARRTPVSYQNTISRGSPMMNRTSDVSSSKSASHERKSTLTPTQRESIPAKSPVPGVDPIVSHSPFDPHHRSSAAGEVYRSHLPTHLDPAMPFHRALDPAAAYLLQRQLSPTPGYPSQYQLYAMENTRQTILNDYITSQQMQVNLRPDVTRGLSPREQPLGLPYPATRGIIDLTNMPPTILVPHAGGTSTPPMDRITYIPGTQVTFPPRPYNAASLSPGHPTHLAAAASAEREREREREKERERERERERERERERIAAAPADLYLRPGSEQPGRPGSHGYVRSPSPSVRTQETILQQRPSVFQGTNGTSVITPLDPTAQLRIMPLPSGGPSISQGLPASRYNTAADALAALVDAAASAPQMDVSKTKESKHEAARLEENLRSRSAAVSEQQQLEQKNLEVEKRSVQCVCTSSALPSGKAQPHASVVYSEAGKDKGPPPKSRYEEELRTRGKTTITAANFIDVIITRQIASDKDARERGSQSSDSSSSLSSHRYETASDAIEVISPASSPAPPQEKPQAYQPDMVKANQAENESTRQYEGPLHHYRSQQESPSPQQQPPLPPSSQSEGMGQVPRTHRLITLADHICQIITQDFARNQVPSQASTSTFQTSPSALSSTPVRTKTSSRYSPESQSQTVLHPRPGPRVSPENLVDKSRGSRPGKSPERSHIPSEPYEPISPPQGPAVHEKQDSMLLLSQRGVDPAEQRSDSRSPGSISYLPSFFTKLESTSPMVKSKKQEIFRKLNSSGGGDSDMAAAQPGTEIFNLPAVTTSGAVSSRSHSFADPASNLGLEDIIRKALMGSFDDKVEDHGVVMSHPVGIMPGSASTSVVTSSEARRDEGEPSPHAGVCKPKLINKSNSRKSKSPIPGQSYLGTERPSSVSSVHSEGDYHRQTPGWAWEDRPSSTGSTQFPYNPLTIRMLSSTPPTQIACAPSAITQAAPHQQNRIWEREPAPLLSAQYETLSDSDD

Question: With MASNSSSCPTPGGGHLNGYPVPPYAFFFPPMLGGLSPPGALTTLQHQLPVSGYSTPSPATIETQSSSSEEIVPSPPSPPPLPRIYKPCFVCQDKSSGYHYGVSACEGCKGFFRRSIQKNMVYTCHRDKNCIINKVTRNRCQYCRLQKCFEVGMSKESVRNDRNKKKKEVPKPECSESYTLTPEVGELIEKVRKAHQETFPALCQLGKYTTNNSSEQRVSLDIDLWDKFSELSTKCIIKTVEFAKQLPGFTTLTIADQITLLKAACLDILILRICTRYTPEQDTMTFSDGLTLNRTQMHNAGFGPLTDLVFAFANQLLPLEMDDAETGLLSAICLICGDRQDLEQPDRVDMLQEPLLEALKVYVRKRRPSRPHMFPKMLMKITDLRSISAKGAERVETLKMEIPGSMPPLIQEMLENSEGLDTLSGQPGGGGRDGGGLAPPPGSCSPSLSPSSNRSSPATHSP [I396E] as the variant, how does the “effect of a mutation on the interaction” value read?
Answer: disrupting interaction

Variants of: B1
Conditions: with ncor2_human NCOR2, Q9Y618
ncor2_human NCOR2, Q9Y618, sequence (Q9Y618 whole entry): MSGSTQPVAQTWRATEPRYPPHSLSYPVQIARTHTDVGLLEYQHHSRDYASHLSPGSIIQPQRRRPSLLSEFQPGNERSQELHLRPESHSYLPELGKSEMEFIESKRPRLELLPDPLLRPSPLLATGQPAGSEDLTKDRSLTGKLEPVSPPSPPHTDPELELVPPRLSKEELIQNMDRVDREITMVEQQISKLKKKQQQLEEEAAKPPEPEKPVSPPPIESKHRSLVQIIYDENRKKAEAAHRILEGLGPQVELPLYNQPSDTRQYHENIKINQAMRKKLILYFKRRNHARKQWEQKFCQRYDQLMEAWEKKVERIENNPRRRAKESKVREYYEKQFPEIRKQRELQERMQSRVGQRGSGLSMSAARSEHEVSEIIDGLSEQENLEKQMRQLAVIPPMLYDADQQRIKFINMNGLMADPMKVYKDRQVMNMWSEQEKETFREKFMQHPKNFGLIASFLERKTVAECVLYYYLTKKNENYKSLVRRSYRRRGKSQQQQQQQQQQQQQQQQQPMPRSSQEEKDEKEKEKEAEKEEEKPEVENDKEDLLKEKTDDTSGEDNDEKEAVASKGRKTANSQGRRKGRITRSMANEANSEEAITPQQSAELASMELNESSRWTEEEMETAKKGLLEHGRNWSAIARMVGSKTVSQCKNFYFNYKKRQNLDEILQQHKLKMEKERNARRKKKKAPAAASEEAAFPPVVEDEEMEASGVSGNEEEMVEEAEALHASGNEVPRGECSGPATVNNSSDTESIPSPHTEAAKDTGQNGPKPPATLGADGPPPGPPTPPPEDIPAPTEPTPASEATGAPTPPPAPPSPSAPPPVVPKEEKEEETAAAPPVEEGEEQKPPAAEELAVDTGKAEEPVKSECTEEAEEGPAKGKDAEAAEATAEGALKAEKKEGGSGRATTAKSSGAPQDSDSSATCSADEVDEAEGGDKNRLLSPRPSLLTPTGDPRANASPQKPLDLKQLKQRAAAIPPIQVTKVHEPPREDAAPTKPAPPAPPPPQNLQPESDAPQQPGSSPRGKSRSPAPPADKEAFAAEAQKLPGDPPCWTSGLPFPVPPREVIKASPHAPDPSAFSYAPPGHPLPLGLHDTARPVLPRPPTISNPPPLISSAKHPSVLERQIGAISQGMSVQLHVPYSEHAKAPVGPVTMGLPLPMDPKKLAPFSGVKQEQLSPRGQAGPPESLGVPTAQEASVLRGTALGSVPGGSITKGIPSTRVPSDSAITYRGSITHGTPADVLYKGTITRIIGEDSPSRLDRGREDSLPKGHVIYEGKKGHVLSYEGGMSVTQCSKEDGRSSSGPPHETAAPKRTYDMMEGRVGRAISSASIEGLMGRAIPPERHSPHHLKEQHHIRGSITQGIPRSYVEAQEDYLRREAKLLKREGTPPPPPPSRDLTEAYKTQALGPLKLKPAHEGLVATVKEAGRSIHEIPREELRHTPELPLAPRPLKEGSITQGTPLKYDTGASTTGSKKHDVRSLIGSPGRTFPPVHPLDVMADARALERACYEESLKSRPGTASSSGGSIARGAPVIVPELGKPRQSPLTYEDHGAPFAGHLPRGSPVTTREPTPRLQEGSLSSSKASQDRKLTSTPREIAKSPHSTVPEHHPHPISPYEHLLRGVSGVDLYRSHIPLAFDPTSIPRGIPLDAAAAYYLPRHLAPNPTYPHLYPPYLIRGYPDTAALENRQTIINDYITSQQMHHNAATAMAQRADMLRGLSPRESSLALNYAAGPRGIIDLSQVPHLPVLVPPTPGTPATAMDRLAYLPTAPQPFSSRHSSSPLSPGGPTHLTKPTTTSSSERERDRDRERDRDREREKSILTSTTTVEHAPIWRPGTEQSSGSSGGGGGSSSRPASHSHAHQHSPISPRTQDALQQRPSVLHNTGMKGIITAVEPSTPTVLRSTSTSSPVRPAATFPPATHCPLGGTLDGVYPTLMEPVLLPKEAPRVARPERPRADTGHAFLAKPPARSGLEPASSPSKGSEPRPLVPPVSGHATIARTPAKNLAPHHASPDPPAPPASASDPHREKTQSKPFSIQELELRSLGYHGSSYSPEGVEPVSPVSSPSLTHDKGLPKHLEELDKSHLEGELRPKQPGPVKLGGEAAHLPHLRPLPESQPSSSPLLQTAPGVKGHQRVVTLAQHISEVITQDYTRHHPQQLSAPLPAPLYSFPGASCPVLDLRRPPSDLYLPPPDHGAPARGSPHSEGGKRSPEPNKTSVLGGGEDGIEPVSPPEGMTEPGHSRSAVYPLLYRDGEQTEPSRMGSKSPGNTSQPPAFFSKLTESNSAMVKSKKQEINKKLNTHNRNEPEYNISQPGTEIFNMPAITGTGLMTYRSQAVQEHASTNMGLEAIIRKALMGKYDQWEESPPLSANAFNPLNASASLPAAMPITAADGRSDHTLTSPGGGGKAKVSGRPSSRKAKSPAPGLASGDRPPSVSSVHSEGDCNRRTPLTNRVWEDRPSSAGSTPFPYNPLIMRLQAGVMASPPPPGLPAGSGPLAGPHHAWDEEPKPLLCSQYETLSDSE

Question: How did the “effect of a mutation on the interaction” value turn out when MASNSSSCPTPGGGHLNGYPVPPYAFFFPPMLGGLSPPGALTTLQHQLPVSGYSTPSPATIETQSSSSEEIVPSPPSPPPLPRIYKPCFVCQDKSSGYHYGVSACEGCKGFFRRSIQKNMVYTCHRDKNCIINKVTRNRCQYCRLQKCFEVGMSKESVRNDRNKKKKEVPKPECSESYTLTPEVGELIEKVRKAHQETFPALCQLGKYTTNNSSEQRVSLDIDLWDKFSELSTKCIIKTVEFAKQLPGFTTLTIADQITLLKAACLDILILRICTRYTPEQDTMTFSDGLTLNRTQMHNAGFGPLTDLVFAFANQLLPLEMDDAETGLLSAICLICGDRQDLEQPDRVDMLQEPLLEALKVYVRKRRPSRPHMFPKMLMKITDLRSISAKGAERVETLKMEIPGSMPPLIQEMLENSEGLDTLSGQPGGGGRDGGGLAPPPGSCSPSLSPSSNRSSPATHSP [I396E] was run?
Answer: disrupting interaction

Variants of: B1
Conditions: with ncor2_human NCOR2, Q9Y618
Remark: another data set of the same source

Question: MASNSSSCPTPGGGHLNGYPVPPYAFFFPPMLGGLSPPGALTTLQHQLPVSGYSTPSPATIETQSSSSEEIVPSPPSPPPLPRIYKPCFVCQDKSSGYHYGVSACEGCKGFFRRSIQKNMVYTCHRDKNCIINKVTRNRCQYCRLQKCFEVGMSKESVRNDRNKKKKEVPKPECSESYTLTPEVGELIEKVRKAHQETFPALCQLGKYTTNNSSEQRVSLDIDLWDKFSELSTKCIIKTVEFAKQLPGFTTLTIADQITLLKAACLDILILRICTRYTPEQDTMTFSDGLTLNRTQMHNAGFGPLTDLVFAFANQLLPLEMDDAETGLLSAICLICGDRQDLEQPDRVDMLQEPLLEALKVYVRKRRPSRPHMFPKMLMKITDLRSISAKGAERVETLKMEIPGSMPPLIQEMLENSEGLDTLSGQPGGGGRDGGGLAPPPGSCSPSLSPSSNRSSPATHSP [I396E] was tested. Which “effect of a mutation on the interaction” value did it give?
Answer: decreasing interaction
